Assay results: patent US20060148715A1, “Structural requirements for STAT3 binding and recruitment to phosphotyrosine ligands” (BAYLOR COLLEGE OF MEDICINE, priority 2004, published 2006)
Read-outs that look alike come from different tables or passages of the source. Non-standard residues stand in square brackets, D forms with d. Residues, ends and D or L forms follow the SMILES beside them. No end group written: not given here. *: point of attachment. d‑Biotin‑LC = N-terminal biotin (d-Biotin-LC), O=C(CCCC[C@@H]1SC[C@@H]2NC(=O)N[C@@H]21)NCCCCCC(=O)*; Biotin = O=C1N[C@H]2[C@H](CS[C@H]2CCCCC(=O)*)N1; pY = N[C@@H](Cc1ccc(OP(=O)(O)O)cc1)C(=O)O; Ahx = NCCCCCC(=O)O

Key:
[1] = target: pY704 phosphododecapeptide (G-CSFR) (human); assay: mirror resonance biosensor, biotinylated peptide on NeutrAvidin, Stat3 in solution
[2] = target: pY1068 phosphododecapeptide (EGFR); assay: as above
[3] = target: pY744 phosphododecapeptide (G-CSFR) (human); assay: as above
wild type Stat3 = target: T1, wild type Stat3 (Homo sapiens, UniProt P40763); assay: Mirror resonance affinity assay (resonant mirror biosensor); assay type: binding; details: for Kd: wild type Stat3 binding to G-CSFR phosphododecapeptides, ratio kdiss/kass, read-out: KD
T1 construct: made in house; host or cells: Sf9 insect cells (baculovirus, pFastBac1)
T1 sequence (P40763 whole entry): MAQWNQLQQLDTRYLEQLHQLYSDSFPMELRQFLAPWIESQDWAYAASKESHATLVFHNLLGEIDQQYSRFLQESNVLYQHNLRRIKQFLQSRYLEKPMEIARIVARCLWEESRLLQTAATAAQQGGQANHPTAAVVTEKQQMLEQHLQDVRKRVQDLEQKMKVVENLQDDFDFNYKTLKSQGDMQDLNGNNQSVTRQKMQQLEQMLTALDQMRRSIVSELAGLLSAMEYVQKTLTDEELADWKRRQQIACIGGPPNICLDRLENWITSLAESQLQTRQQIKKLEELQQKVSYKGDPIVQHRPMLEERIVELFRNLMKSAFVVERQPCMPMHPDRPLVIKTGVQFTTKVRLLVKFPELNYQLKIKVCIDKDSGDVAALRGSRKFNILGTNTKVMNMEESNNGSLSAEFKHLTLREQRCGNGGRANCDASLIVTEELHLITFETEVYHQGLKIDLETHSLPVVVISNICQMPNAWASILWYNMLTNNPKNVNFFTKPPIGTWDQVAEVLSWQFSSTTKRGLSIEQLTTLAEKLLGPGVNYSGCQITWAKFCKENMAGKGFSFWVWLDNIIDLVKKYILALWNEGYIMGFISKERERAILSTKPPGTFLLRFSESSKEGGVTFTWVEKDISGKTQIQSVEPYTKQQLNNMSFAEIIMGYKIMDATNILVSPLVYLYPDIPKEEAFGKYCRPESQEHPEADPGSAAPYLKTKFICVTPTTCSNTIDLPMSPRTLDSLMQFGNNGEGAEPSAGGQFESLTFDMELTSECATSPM
Description: (§1) Kinetics experiments were performed using an lasys Auto+ resonant mirror biosensor (Affinity Sensor, Paramus, N.J.) (see Sadowski et. al, 1986). Briefly, two-welled cuvettes coated on the bottom of each well with biotin were purchased from Affinity Sensor and prepared for immobilization of biotinylated peptides by coating each surface with 0.04 mg/ml NeutrAvidin (Pierce) and washing with PBS-T (20 mM Na Phosphate, 0.05% Tween-20). Biotinylated peptide (5 μg) was added into each well—experimental peptide to one well and control peptide to the other—and change in arc seconds monitored simultaneously in both wells using the biosensor until stable followed by washing with PBS-T. Real-time binding of Stat3 was conducted at 25° C. at a stir speed of 70 for 10 min starting at the lowest concentration of Stat3. The wells were washed out with three changes of 60 μl PBS-T, and dissociation was allowed to proceed for 5 min. Each well bottom was regenerated by washing with […] of 100 mM formic acid for 2 min and equilibrated with PBS-T for the next round of association assay. Data were collected automatically and analyzed with the FASTplot and GraFit software (see Sheinerman et. al, 2003).
(§2) Mirror resonance affinity assay. Two cells of a biotin-coated cuvette pretreated with saturating amounts of NeutrAvidin. One well of the cuvette was pretreated with biotinylated phosphopeptide based on Y1068 (pY1068, left panel), while the other well was pretreated with biotinylated non-phosphorylated peptide Y1068 (Y1068, right panel) as a control for non-specific binding. Wild type or mutated Stat3 protein was added in the concentrations indicated to each of the two cells and mirror resonance measurements recorded continuously for 10 min as shown.
To obtain quantitative kinetic information about the binding of Stat3 to G-CSFR Y704 and Y744 including association rates (kass), disassociation rates (kdiss) and dissociation equilibrium constants (KD), real-time affinity measurements using a mirror resonance biosensor were performed. The biosensor exploits surface plasmon resonance to measure in real time the alteration in the angle of a laser light reflected from a surface upon which binding events are occurring. Biotinylated peptides were immobilized onto the bottom surface of cuvette wells pre-coated with NeutrAvidin. The interaction of peptides with Stat3 added at different concentrations was measured in real time as altered deflection of a laser light striking the bottom surface of the cuvette; the alterations in the deflection angle measured in arc seconds was analyzed with GraFit software. […] The slightly lower KD for Y704 vs. Y744 is attributable to a faster association rate of Stat3 binding to this phosphododecapeptide.

Stat3-3M [4] = target: T2, Stat3-3M (Homo sapiens, UniProt P40763, E638L/Y640F/Y657F); assay: as above; assay type: binding; details: Stat3-3M binding to G-CSFR phosphododecapeptides; ratio kdiss/kass; read-out: KD
T2 construct: made in house; host or cells: Sf9 insect cells (baculovirus, pFastBac1)
T2 sequence (P40763 whole entry E638L/Y640F/Y657F): as the sequence (P40763 whole entry) above, with E638L, Y640F, Y657F counted along it
Description: as §1, §2

[5] = target: T3, wild type Stat3 (recombinant human Stat3alpha with N-terminal 6-histidine tag) (human, UniProt P40763 1-770); assay: peptide pull-down: biotinylated peptide on NeutrAvidin agarose, purified His-tagged Stat3 protein added, bound protein immunoblotted with Stat3 mAb
T3 construct: Expressed in Sf9 cells and purified on Ni-NTA for peptide assays; expressed from pcDNA3.1 in 293T cells for the G-CSFR co-immunoprecipitation; also called WT; purified Stat3
T3 sequence (P40763 other isoform, or with tags, fused parts or gaps limits assumed): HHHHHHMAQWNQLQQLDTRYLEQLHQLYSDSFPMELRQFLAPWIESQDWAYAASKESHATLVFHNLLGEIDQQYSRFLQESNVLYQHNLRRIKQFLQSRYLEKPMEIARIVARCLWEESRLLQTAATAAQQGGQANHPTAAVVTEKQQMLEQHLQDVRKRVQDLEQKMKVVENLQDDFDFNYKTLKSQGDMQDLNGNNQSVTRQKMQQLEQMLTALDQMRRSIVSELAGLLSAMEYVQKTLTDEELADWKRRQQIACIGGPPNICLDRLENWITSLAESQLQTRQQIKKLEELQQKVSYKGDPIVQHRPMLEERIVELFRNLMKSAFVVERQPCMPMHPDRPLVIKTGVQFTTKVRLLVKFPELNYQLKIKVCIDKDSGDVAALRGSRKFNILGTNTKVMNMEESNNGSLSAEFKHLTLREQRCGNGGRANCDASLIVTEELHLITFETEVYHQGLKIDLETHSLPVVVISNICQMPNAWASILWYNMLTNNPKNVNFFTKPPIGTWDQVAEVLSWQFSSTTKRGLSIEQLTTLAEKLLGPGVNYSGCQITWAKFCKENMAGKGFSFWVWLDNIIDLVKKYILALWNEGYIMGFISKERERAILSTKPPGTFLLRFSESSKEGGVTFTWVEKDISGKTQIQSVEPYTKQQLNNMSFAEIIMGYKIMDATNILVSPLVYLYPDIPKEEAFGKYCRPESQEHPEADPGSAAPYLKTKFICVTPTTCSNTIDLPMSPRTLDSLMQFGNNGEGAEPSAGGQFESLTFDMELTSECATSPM

Stat3-E638P [6] = target: T4, Stat3-E638P (human, UniProt P40763 1-770); assay: as above
T4 construct: Produced in Sf9 cells; CD spectrum essentially identical to wild type
T4 sequence (P40763 other isoform, or with tags, fused parts or gaps E638P E638P limits assumed): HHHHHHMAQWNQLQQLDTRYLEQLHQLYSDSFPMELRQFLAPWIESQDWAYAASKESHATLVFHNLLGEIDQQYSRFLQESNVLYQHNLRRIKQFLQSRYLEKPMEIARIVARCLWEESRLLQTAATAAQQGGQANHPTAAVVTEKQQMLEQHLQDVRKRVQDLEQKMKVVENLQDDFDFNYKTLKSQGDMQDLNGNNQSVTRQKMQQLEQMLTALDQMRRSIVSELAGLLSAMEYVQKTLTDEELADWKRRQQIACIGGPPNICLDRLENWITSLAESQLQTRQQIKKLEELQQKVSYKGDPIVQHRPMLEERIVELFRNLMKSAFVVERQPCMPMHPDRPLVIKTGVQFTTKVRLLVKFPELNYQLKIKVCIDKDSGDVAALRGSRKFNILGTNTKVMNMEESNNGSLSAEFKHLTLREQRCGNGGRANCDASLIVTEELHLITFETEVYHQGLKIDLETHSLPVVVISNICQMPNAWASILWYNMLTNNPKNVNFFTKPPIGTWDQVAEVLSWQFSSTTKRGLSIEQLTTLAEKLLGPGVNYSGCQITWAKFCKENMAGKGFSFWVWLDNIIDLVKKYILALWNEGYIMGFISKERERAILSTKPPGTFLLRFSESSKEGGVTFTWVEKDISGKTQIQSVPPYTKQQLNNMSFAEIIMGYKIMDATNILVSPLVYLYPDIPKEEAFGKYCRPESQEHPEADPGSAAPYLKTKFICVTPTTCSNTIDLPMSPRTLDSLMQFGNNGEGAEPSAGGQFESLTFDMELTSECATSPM

Stat3-3M [7] = target: T5, Stat3-3M (human, UniProt P40763 1-770, limits assumed); assay: as above
T5 sequence (P40763 other isoform, or with tags, fused parts or gaps limits assumed): as the sequence (P40763 other isoform, or with tags, fused parts or gaps E638P E638P limits assumed) above, with P644L, Y646F, Y663F counted along it

Stat3-E638P [8] = target: T4, Stat3-E638P; assay: as above; remark: listed apart in the source
[9] = target: T3, wild type Stat3 (recombinant human …); assay: as above; remark: listed apart in the source
Stat3-6M = Stat3-6M (human, UniProt P40763 1-770, limits assumed); assay: as above
Chain of Stat3-6M (P40763 other isoform, or with tags, fused parts or gaps limits assumed): as the sequence (P40763 other isoform, or with tags, fused parts or gaps E638P E638P limits assumed) above, with P644L, Y646F, Y663F, C693A, S697A, Q698L counted along it

Stat3-4M = Stat3-4M (human, UniProt P40763 1-770, limits assumed); assay: as above
Chain of Stat3-4M (P40763 other isoform, or with tags, fused parts or gaps limits assumed): as the sequence (P40763 other isoform, or with tags, fused parts or gaps E638P E638P limits assumed) above, with P644E, Y663F, C693A, S697A, Q698L counted along it

Stat3-3M [10] = target: T5, Stat3-3M; assay: as above; remark: listed apart in the source
[11] = target: T3, wild type Stat3 (recombinant human …); assay: mirror resonance biosensor: biotinylated peptide on NeutrAvidin-coated cuvette, Stat3 protein in solution, association followed for about 10 min
Description: as §1, with “Biotinylated peptide (5 μg) was added into each well—experimental peptide to one well and control peptide to the other—and change in arc seconds monitored simultaneously in both wells using the biosensor until stable followed by washing with PBS-T. Real-time binding of Stat3 was conducted at 25° C. at a stir speed of 70 for 10 min starting at the lowest concentration of Stat3.” left out
as §2, with “binding.” for “binding. Wild type or mutated Stat3 protein was added in the concentrations indicated to each of the two cells and mirror resonance measurements recorded continuously for 10 min as shown.”

Stat3-E638P [12] = target: T4, Stat3-E638P; assay: as above
Description: as §1, with “Biotinylated peptide (5 μg) was added into each well—experimental peptide to one well and control peptide to the other—and change in arc seconds monitored simultaneously in both wells using the biosensor until stable followed by washing with PBS-T. Real-time binding of Stat3 was conducted at 25° C. at a stir speed of 70 for 10 min starting at the lowest concentration of Stat3.” left out
as §2, with “binding.” for “binding. Wild type or mutated Stat3 protein was added in the concentrations indicated to each of the two cells and mirror resonance measurements recorded continuously for 10 min as shown.”

[13] = target: T3, wild type Stat3 (recombinant human …); assay: peptide pull-down: biotinylated peptide on NeutrAvidin agarose, purified His-tagged Stat3 protein added, bound protein immunoblotted with Stat3 mAb; remark: listed apart in the source

Molecule: wild type Stat3 (recombinant human Stat3alpha with N-terminal 6-histidine tag) (from UniProt P40763 1-770)
- Kd [1]: 703 nM
- Kd [2]: 223 nM
- Kd [3]: 950 nM

Molecule: LPVPE(pY)INRSVP (LPVPE[pY]INRSVP) [Y1068 Q-to-R PDP]
- Stat3 binding in real-time resonance mirror affinity assay (wild type Stat3; wild type Stat3): undetectable

Molecule: CC(C)C[C@H](NC(=O)[C@@H](NC(=O)[C@H](Cc1ccc(OP(=O)(O)O)cc1)NC(=O)[C@@H](NC(=O)[C@H](CCC(N)=O)NC(=O)[C@@H](NC(=O)[C@H](CC(C)C)NC(=O)[C@@H](NC(=O)CCCCCNC(=O)CCCC[C@@H]1SC[C@@H]2NC(=O)N[C@@H]21)[C@@H](C)O)C(C)C)[C@@H](C)O)C(C)C)C(=O)N[C@@H](CCC(N)=O)C(=O)NCC(=O)N[C@@H](CC(=O)O)C(=O)N1CCC[C@H]1C(=O)O [compound 704, TLVQTpYVLQGDP] ({Biotin-Ahx}-TLVQT[pY]VLQGDP-OH)
- Kd (wild type Stat3): 703 nM
- Kd (Stat3-3M [4]): 1210 nM

Molecule: CC(C)C[C@H](NC(=O)[C@H](Cc1ccc(OP(=O)(O)O)cc1)NC(=O)[C@H](Cc1c[nH]cn1)NC(=O)CNC(=O)[C@@H]1CCCN1C(=O)CNC(=O)[C@@H]1CCCN1C(=O)CCCCCNC(=O)CCCC[C@@H]1SC[C@@H]2NC(=O)N[C@@H]21)C(=O)N[C@@H](CCCNC(=N)N)C(=O)N[C@@H](CS)C(=O)N[C@@H](CC(=O)O)C(=O)N[C@@H](CO)C(=O)N[C@H](C(=O)O)[C@@H](C)O [compound 744, PGPGHpYLRCDST] ({Biotin-Ahx}-PGPGH[pY]LRCDST-OH)
- Kd (wild type Stat3): 950 nM
- Kd (Stat3-3M [4]): 1060 ± 150 nM

Molecule: {d‑Biotin‑LC}-TLVQTYVLQGDP [Y704 non-phosphorylated dodecapeptide (G-CSFR)]
- binding result [5]: no binding
- binding result (Stat3-E638P [6]): no binding
- binding result (Stat3-3M [7]): no binding

Molecule: {d‑Biotin‑LC}-SDQVL[pY]GQLLGS [pY729 phosphododecapeptide (G-CSFR)]
- binding result [5]: no binding
- binding result (Stat3-E638P [6]): no binding

Molecule: {d‑Biotin‑LC}-PSPLS[pY]ENLTFQ [pY764 phosphododecapeptide (G-CSFR)]
- binding result [5]: no binding
- binding result (Stat3-E638P [6]): no binding

B1: pY1086 phosphododecapeptide (EGFR) (peptide)
peptide: {d‑Biotin‑LC}-VQNPV[pY]HNQPLN
notes: also called Y1086 PDP; Y1086 phosphopeptide
- binding result (Stat3-E638P [8]): no binding

Molecule: {d‑Biotin‑LC}-VQNPVYHNQPLN [Y1086 non-phosphorylated dodecapeptide (EGFR)]
- binding result [9]: no binding
- binding result (Stat3-6M): no binding
- binding result (Stat3-4M): no binding
- binding result (Stat3-3M [10]): no binding
- binding result (Stat3-E638P [8]): no binding

Molecule: {d‑Biotin‑LC}-TLVQT[pY]VLQGDP [pY704 phosphododecapeptide (G-CSFR)]
- binding result (Stat3-E638P [6]): no binding

B2: Y1068 non-phosphorylated dodecapeptide (EGFR) (peptide)
peptide: {d‑Biotin‑LC}-LPVPEYINQSVP
notes: also called unphosphorylated Y1068 dodecapeptide
- binding result [11]: no binding
- binding result (Stat3-E638P [12]): no binding (tested: 600 nM)
- binding result (Stat3-6M): no binding
- binding result (Stat3-4M): no binding
- binding result (Stat3-3M [10]): no binding

Molecule: {d‑Biotin‑LC}-LPVPE[pY]INRSVP (also called Y1068 Q-to-R PDP) [pY1068-R phosphododecapeptide (EGFR Y1068, +3 Q to R)]
- binding result [13]: no binding
- binding result (Stat3-E638P [8]): no binding

B3: pY992 (peptide)
peptide: {d‑Biotin‑LC}-TDSNF[pY]RALMDE
notes: EGFR-based control phosphopeptide; also called pY992 phosphododecapeptide (EGFR)
- binding result (Stat3-E638P [8]): no binding

B4: pY1173 (peptide)
peptide: {d‑Biotin‑LC}-LDNPD[pY]QQDFFP
notes: EGFR-based phosphopeptide; also called pY1173 phosphododecapeptide (EGFR)
- binding result (Stat3-E638P [8]): no binding

Molecule: {d‑Biotin‑LC}-LPVPE[pY]INMSVP [pY1068-M phosphododecapeptide (EGFR Y1068, +3 Q to M)]
- binding result [13]: no binding
- binding result (Stat3-E638P [8]): no binding

Molecule: {d‑Biotin‑LC}-LPVPE[pY]INESVP [pY1068-E phosphododecapeptide (EGFR Y1068, +3 Q to E)]
- binding result [13]: no binding
- binding result (Stat3-E638P [8]): no binding

Molecule: {d‑Biotin‑LC}-PGPGH[pY]LRCDST [pY744 phosphododecapeptide (G-CSFR)]
- binding result (Stat3-E638P [6]): no binding

B5: pY1148 (peptide)
peptide: {d‑Biotin‑LC}-VGNPE[pY]LNTVQP
notes: EGFR-based phosphopeptide; also called pY1148 phosphododecapeptide (EGFR)
- binding result (Stat3-E638P [8]): no binding

Molecule: {d‑Biotin‑LC}-LPVPE[pY]INLSVP [pY1068-L phosphododecapeptide (EGFR Y1068, +3 Q to L)]
- binding result [13]: no binding
- binding result (Stat3-E638P [8]): no binding

B6: pY1068 phosphododecapeptide (EGFR) (peptide)
peptide: LPVPEXINQSVP
modifications: phosphotyrosine at position 6 (EGFR Y1068); N-terminal biotin (d-Biotin-LC)
notes: also called Y1068 PDP; Y1068 phosphopeptide
- binding result (Stat3-E638P [12]): no binding (tested: 600 nM)
